Measured values as given in the Immune Epitope Database (IEDB).

Assays:
Assay in all cases: IEDB peptide-MHC binding, purified MHC/competitive/radioactivity; ≥ and ≤ were set here for values at or beyond the usual limits of such assays
HLA-A*02:01 = biological target: HLA-A*02:01
HLA-A*02:02 = biological target: HLA-A*02:02
HLA-A*02:03 = biological target: HLA-A*02:03
HLA-A*02:06 = biological target: HLA-A*02:06
HLA-A*68:02 = biological target: HLA-A*68:02
[1] = source organism: Vaccinia virus WR
[2] = source organism: Hepacivirus hominis
[3] = source organism: Influenza A virus
[4] = source organism: Mammarenavirus whitewaterense
[5] = source organism: Mammarenavirus machupoense
[6] = source organism: Mammarenavirus brazilense

Row | Sequence | IC50 (HLA-A*02:01; [1]) [nM] | IC50 (HLA-A*02:02; [1]) [nM] | IC50 (HLA-A*02:03; [1]) [nM] | IC50 (HLA-A*02:06; [1]) [nM] | IC50 (HLA-A*68:02; [1]) [nM] | further results
1 | TILATLNTLI | 184 | 40 | 30 | 335 | 1470 | 
2 | VLMTHFFSV |  |  |  |  |  | IC50 (HLA-A*02:01; [2]): 1.9 nM; IC50 (HLA-A*02:02; [2]): 4.9 nM; IC50 (HLA-A*02:03; [2]): 2.6 nM; IC50 (HLA-A*02:06; [2]): 6.1 nM; IC50 (HLA-A*68:02; [2]): 103 nM
3 | AVANCVRNL | 1200 | 66 | 114 | 1380 | 1350 | 
4 | YMVTDKTAYI | 4.8 | 0.23 | 0.28 | 6.1 | 1.5 | 
5 | SVKNLILNFL | 2210 | 1040 | 163 | 551 | 130 | 
6 | MVTDKTAYI | 227 | 17 | 2 | 25 | 3.2 | 
7 | STISWMMKL | 55 | 92 | 23 | 12 | 0.23 | 
8 | SIDHCSSFI | 246 | 631 | 13 | 199 | 27 | 
9 | LLFLVLIML |  |  |  |  |  | IC50 (HLA-A*02:01; source organism: SARS-CoV1): 294 nM; IC50 (HLA-A*02:02; source organism: SARS-CoV1): 154 nM; IC50 (HLA-A*02:03; source organism: SARS-CoV1): 1370 nM; IC50 (HLA-A*02:06; source organism: SARS-CoV1): 573 nM; IC50 (HLA-A*68:02; source organism: SARS-CoV1): 1250 nM
10 | KLFTHDIML | 1.4 | 1 | 3 | 4.7 | 769 | 
11 | WISFAISCFL |  |  |  |  |  | IC50 (HLA-A*02:01; [3]): 3510 nM; IC50 (HLA-A*02:02; [3]): 230 nM; IC50 (HLA-A*02:03; [3]): 355 nM; IC50 (HLA-A*02:06; [3]): 819 nM; IC50 (HLA-A*68:02; [3]): 364 nM
12 | NLFDIPLLT | 10 | 135 | 36 | 1540 | 2890 | 
13 | ALMIAAQVVV |  |  |  |  |  | IC50 (HLA-A*02:01; [2]): 129 nM; IC50 (HLA-A*02:02; [2]): 50 nM; IC50 (HLA-A*02:03; [2]): 71 nM; IC50 (HLA-A*02:06; [2]): 614 nM; IC50 (HLA-A*68:02; [2]): 1420 nM
14 | WVMDTLNGI | 12 | 9.8 | 1 | 0.73 | 0.44 | 
15 | TLLGLILFVL | 35 | 169 | 796 | 672 | 720 | 
16 | FIISTLNKI | 6.1 | 1.6 | 0.42 | 5.8 | 1500 | 
17 | LMTLDDLAI | 74 | 52 | 76 | 288 | 4410 | 
18 | FMSHVKSVT | 873 | 508 | 181 | 4320 | 2600 | 
19 | MMNITRLEVI | 144 | 85 | 26 | 134 | 428 | 
20 | DVLPFDIKYI | 183 | 1200 | 188 | 1110 | 361 | 
21 | YAAEMVEYL | 32 | 0.52 | 2.1 | 12 | 13 | 
22 | LNASYITPYV |  |  |  |  |  | IC50 (HLA-A*02:01; [4]): 87 nM; IC50 (HLA-A*02:02; [4]): 33 nM; IC50 (HLA-A*02:03; [4]): 1070 nM; IC50 (HLA-A*02:06; [4]): 38 nM; IC50 (HLA-A*68:02; [4]): 13 nM
23 | KSFFWFNEV |  |  |  |  |  | IC50 (HLA-A*02:01; [5]): 6.5 nM; IC50 (HLA-A*02:02; [5]): 62 nM; IC50 (HLA-A*02:03; [5]): 265 nM; IC50 (HLA-A*02:06; [5]): 3.2 nM; IC50 (HLA-A*68:02; [5]): 84 nM
24 | LLPDALLFTL |  |  |  |  |  | IC50 (HLA-A*02:01; [6]): 77 nM; IC50 (HLA-A*02:02; [6]): 4.7 nM; IC50 (HLA-A*02:03; [6]): 733 nM; IC50 (HLA-A*02:06; [6]): 79 nM; IC50 (HLA-A*68:02; [6]): 232 nM
25 | MMMNWSPTTA |  |  |  |  |  | IC50 (HLA-A*02:01; [2]): 34 nM; IC50 (HLA-A*02:02; [2]): 14 nM; IC50 (HLA-A*02:03; [2]): 6.1 nM; IC50 (HLA-A*02:06; [2]): 849 nM; IC50 (HLA-A*68:02; [2]): 1140 nM
26 | KIYTLIYRQL | 4020 | 707 | 1030 | 912 | 4670 | 
